Blank lines part the entries; values can stand above or below the molecule they belong to.
Key:
Lon-His (C. crescentus) [1] = molecular target: Lon-His (C. crescentus) (UniProt B8GX12)
[2] = molecular target: Lon^EQ (Lon E420Q, Walker-B mutant) (C. crescentus) (UniProt B8GX12); experiment: native MS; purified proteins buffer exchanged into 200 mM ammonium acetate pH 8.0, mixed in equimolar ratios (LarA also in 3-fold excess); nano ESI, Waters Synapt G2, source temperature 30 °C
Lon-His (C. crescentus) [3] = molecular target: Lon-His (C. crescentus) (UniProt B8GX12); remark: listed apart in the source
[4] = molecular target: the molecule itself; experiment: native MS; purified proteins buffer exchanged into 200 mM ammonium acetate pH 8.0, mixed in equimolar ratios (LarA also in 3-fold excess); nano ESI, Waters Synapt G2, source temperature 30 °C

Km of Lon-mediated His-SciP degradation in vitro, in the presence of 2 µM LarA (0.05 µM Lon-His hexamer) (Lon-His (C. crescentus) [1]): 1.8 µM
Km of Lon-mediated His-SciP degradation in vitro, without LarA (0.05 µM Lon-His hexamer) (Lon-His (C. crescentus) [1]): 9.3 µM
Molecule: 6xHis-tagged SciP (natural protein)

stoichiometry N (LarA molecules per Lon^EQ hexamer) [2]: 6
rate of Lon-mediated His-SciP degradation against LarA concentration (0 to 15 µM), highest at 2 µM LarA, compared with reactions lacking LarA (Lon-His (C. crescentus) [3]): 5.5 fold
Molecule: LarA, purified (natural protein)

B1: Lon^EQ (Lon E420Q, Walker-B mutant) (enzyme, C. crescentus, UniProt B8GX12 1-799, looked up)
chain: MSELRTLPVLPLRDIVVFPHMVVPLFVGRDKSVRALEEVMRGDKQILLVTQKNSADDDPAPGDIFEVGVLATVLQLLKLPDGTVKVLVEGKARAAVVSFTDQESYYEAQIGEVSEDDGAGPEAEALSRAVVEQFENYVKLNKKVPPEALASIPQIAEPGKLADSIAAHLSVKIGDKQNLLEIFDVVKRLEKVFALMEGEISVLQVEKKIRSRVKRQMEKTQREYYLNEQMKAIQRELGDPDDARDELIDLEKRIKKTKLSKEARTKAESELKKLRNMSPMSAESTVVRNYLDWLLSIPWGKAKTKKIDLVESEGILDADHYGLEKVKERILEYLAVQARTNSLKGPILCLVGPPGVGKTSLGKSIAKATGREFVRMSLGGVRDEAEIRGHRRTYIGSMPGKVVQSMKKAKTTNAFVLLDQIDKMGSDYRGDPASALLEVLDPSQNSTFGDHYLEVDYDLSQVMFVTTANSLNMPQPLLDRMEIIRIPGYTEDEKLEIAKRHILPKLAKDHGLKPAEFIVPDKAIRDLIRYYTREAGVRSLERELGALARKTVRDLAREKVASITIDDERLAKYAGVKKYRYGETDEVDQVGIVTGLAWTEFGGDILTIEAVKMPGKGRMQITGNLKDVMKESIAAANSYVRSRALQFGIKPPVFEKTDVHIHVPDGATPKDGPSAGIAMALAMVSVLTGIPIRKDIAMTGEITLRGRVTAIGGLKEKLLAALRSGVKTVLIPQENEKDLADVPQTVKDGLEIIPVSTVDEVLKHALTGPLTPVEWNEAEEPITTSAKKDDGDSDAMLTH
notes: predicted molecular weight of the hexamer 529,458 Da; Deficient in ATP hydrolysis; source: E. coli BL21-SI/pCodonPlus, purified (Talon, Ulp1 cleavage, anion exchange)
stoichiometry N [4]: 6

Reference: publication PMC10665427, “The heat shock protein LarA activates the Lon protease in response to proteotoxic stress” (Nature Communications, 2023)
